# Assay results published in patent US5679770A, “Polypeptide, DNA fragment encoding the same, drug composition containing the same and process for producing the same” (Mochida Pharmaceutical Co., Ltd., priority 1991, dated 1997).
# Read-outs that look alike come from different tables or passages of the source.
# B1: urinary trypsin inhibitor (protein, UniProt P02760 206-352, looked up)
# Inter-alpha-trypsin inhibitor …: AVLPQEEEGSGGGQLVTEVTKKEDSCQLGYSAGPCMGMTSRYFYNGTSMACETFQYGGCMGNGNNFVTEKECLQTCRTVAACNLPIVRGPCRAFIQLWAFDAVKGKCVLFPYGGCQGNGNKFYSEKECREYCGVPGDGDEELLRFSN
# modifications: Inter-alpha-trypsin inhibitor light chain
# B2: HI-30: Bikunins (HI-30), natural protease inhibitor (protein, UniProt P02760 206-352, looked up)
# Inter-alpha-trypsin inhibitor …: AVLPQEEEGSGGGQLVTEVTKKEDSCQLGYSAGPCMGMTSRYFYNGTSMACETFQYGGCMGNGNNFVTEKECLQTCRTVAACNLPIVRGPCRAFIQLWAFDAVKGKCVLFPYGGCQGNGNKFYSEKECREYCGVPGDGDEELLRFSN
# modifications: Inter-alpha-trypsin inhibitor light chain
# B3: polypeptide Q19K (peptide)
# chain: DDAACNLPIVRGPCRAFIKLWAFDAVKGKCVLFPYGGCQGNGNKFYSEK
# B4: polypeptide Q19R (peptide)
# chain: AACNLPIVRGPCRAFIRLWAFDAVKGKCVLFPYGGCQGNGNKFYSEK
# B5: polypeptide Q19K/Y46E (peptide)
# chain: AACNLPIVRGPCRAFIKLWAFDAVKGKCVLFPYGGCQGNGNKFESEK
# B6: polypeptide Q19R/Y46E (peptide)
# chain: AACNLPIVRGPCRAFIRLWAFDAVKGKCVLFPYGGCQGNGNKFESEK
# B7: polypeptide R11E/Y46E (peptide)
# chain: AACNLPIVEGPCRAFIQLWAFDAVKGKCVLFPYGGCQGNGNKFESEK
# Columns and labels:
# [1] = molecular target: activated blood coagulation factor X (FXa) (Homo sapiens, UniProt P00742); details: background statement; cited from earlier work
# Chain of activated blood coagulation factor X (FXa) (P00742 235-488 limits assumed): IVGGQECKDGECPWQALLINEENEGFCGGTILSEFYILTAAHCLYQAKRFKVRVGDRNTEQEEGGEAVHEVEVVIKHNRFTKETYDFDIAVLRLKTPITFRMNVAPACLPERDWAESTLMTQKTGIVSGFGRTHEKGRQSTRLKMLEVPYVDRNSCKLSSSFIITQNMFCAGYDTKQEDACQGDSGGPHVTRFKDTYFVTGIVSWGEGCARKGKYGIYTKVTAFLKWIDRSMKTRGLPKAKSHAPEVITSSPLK
# Chain of activated blood coagulation factor X (FXa) (P00742 41-179 partner limits assumed): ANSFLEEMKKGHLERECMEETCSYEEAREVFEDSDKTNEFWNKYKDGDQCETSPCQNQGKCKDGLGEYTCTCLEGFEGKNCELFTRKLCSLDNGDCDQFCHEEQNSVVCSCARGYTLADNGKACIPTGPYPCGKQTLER
# [2] = molecular target: human FXa (American Diagnostica Inc.) (human) (UniProt P00742)
# Chain of human FXa (American Diagnostica Inc.) (human) (P00742 41-488 limits assumed): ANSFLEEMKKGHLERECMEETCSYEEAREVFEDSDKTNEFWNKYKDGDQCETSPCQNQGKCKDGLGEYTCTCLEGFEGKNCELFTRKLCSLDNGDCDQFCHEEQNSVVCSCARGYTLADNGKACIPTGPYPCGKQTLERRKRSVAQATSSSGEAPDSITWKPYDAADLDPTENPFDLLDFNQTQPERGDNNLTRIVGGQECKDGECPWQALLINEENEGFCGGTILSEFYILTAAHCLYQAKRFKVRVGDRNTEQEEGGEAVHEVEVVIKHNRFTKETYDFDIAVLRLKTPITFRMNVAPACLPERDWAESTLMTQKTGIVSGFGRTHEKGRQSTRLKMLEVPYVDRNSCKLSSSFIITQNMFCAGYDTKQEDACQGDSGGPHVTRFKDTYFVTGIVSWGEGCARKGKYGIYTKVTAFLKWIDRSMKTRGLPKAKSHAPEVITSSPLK
# [3] = molecular target: human FXa (American Diagnostica Inc.) (human) (UniProt P00742); remark: listed apart in the source
# [4] = molecular target: human FXa (American Diagnostica Inc.) (human) (UniProt P00742); remark: listed apart in the source
# [5] = molecular target: human FXa (American Diagnostica Inc.) (human) (UniProt P00742); remark: listed apart in the source
# [6] = molecular target: human FXa (American Diagnostica Inc.) (human) (UniProt P00742); remark: listed apart in the source
molecule,measurement,setting,value
B1,FXa-inhibiting activity,[1],hardly show such an activity
B2,FXa-inhibiting activity,[1],hardly show such an activity
B3,"human FXa-inhibiting activity (substrate S-2222, residual FXa activity) (times higher than polypeptide TN70)",[2],5
B4,"human FXa-inhibiting activity (substrate S-2222, residual FXa activity) (times higher than polypeptide AN68)",[3],6
B5,"human FXa-inhibiting activity (substrate S-2222, residual FXa activity) (times higher than polypeptide AN68)",[4],10
B6,"human FXa-inhibiting activity (substrate S-2222, residual FXa activity) (times higher than polypeptide AN68)",[5],10
B7,"human FXa-inhibiting activity (substrate S-2222, residual FXa activity) (times higher than polypeptide AN68)",[6],3
